Results: article PMC2756588

B1: unnamed (peptide)
chain: APKHAPPPVPNETDN
B2: unnamed (peptide)
chain: TEVPIPRRPPPPQAA
B3: unnamed (peptide)
chain: PPPPPPPPPPPLPQS

Molecular target: T1, Abp1, P15891
T1 sequence (P15891 535-592, looked up): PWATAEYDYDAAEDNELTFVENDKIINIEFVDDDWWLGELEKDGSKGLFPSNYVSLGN
Assay: SPOT array
Conditions: median of control spots 935

For B1, which SPOT intensity is on record?
Its SPOT intensity is 0.

With B2 as the binder, how does the SPOT intensity read?
Its SPOT intensity is 0.

How did the SPOT intensity turn out when B3 was run?
The SPOT intensity was 0.

Molecular target: T2, Bbc1, P47068
T2 sequence (P47068 1-78, looked up): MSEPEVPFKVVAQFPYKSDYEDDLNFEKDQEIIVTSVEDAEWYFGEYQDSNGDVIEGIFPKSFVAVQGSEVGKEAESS
Assay: SPOT array
Conditions: median of control spots 796

With B1 as the binder, how does the SPOT intensity read?
The SPOT intensity was 0.

For B2, which SPOT intensity is on record?
The SPOT intensity was 3.

How did the SPOT intensity turn out when B3 was run?
The SPOT intensity was 0.

Molecular target: Bem1-1, P29366
Sequence (P29366 55-141): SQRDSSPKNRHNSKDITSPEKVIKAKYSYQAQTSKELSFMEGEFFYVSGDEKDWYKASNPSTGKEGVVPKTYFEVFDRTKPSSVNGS
Assay: SPOT array
Conditions: median of control spots 4282

With B1 as the binder, how does the SPOT intensity read?
Its SPOT intensity is 0.

For B2, which SPOT intensity is on record?
The SPOT intensity was 3.

B3 was tested. Which SPOT intensity did it give?
Its SPOT intensity is 0.

Molecular target: Bem1-2, P29366
Sequence (P29366 139-227): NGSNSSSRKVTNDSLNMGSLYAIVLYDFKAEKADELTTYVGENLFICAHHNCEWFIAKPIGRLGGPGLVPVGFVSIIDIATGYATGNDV
Assay: SPOT array
Conditions: median of control spots 4347

With B1 as the binder, how does the SPOT intensity read?
Its SPOT intensity is 0.

How did the SPOT intensity turn out when B2 was run?
Its SPOT intensity is 0.

How did the SPOT intensity turn out when B3 was run?
Its SPOT intensity is 0.

Molecular target: T3, Boi1, P38041
T3 sequence (P38041 1-86, looked up): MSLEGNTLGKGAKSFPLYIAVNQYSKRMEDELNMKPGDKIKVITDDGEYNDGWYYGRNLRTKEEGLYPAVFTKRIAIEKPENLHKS
Assay: SPOT array
Conditions: median of control spots 1162

How did the SPOT intensity turn out when B1 was run?
The SPOT intensity was 0.

B2 was tested. Which SPOT intensity did it give?
The SPOT intensity was 0.

With B3 as the binder, how does the SPOT intensity read?
The SPOT intensity was 0.

Molecular target: T4, Boi2, P39969
T4 sequence (P39969 32-116, looked up): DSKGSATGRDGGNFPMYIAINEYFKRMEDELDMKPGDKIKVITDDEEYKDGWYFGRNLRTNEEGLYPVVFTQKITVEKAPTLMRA
Assay: SPOT array
Conditions: median of control spots 1161

With B1 as the binder, how does the SPOT intensity read?
The SPOT intensity was 0.

Which SPOT intensity does the source give for B2 here?
The SPOT intensity was 0.

For B3, which SPOT intensity is on record?
Its SPOT intensity is 0.

Molecular target: T5, Bud14, P27637
T5 sequence (P27637 247-328, looked up): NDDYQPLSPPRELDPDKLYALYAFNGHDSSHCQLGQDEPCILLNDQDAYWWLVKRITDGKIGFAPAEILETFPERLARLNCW
Assay: SPOT array
Conditions: median of control spots 956

B1 was tested. Which SPOT intensity did it give?
The SPOT intensity was 0.

How did the SPOT intensity turn out when B2 was run?
Its SPOT intensity is 0.

Which SPOT intensity does the source give for B3 here?
Its SPOT intensity is 0.

Molecular target: T6, Bzz1-1, P38822
T6 sequence (P38822 478-572, looked up): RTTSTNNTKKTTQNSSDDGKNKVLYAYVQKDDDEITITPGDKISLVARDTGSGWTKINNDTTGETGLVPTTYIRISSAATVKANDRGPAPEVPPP
Assay: SPOT array
Conditions: median of control spots 4446

B1 was tested. Which SPOT intensity did it give?
Its SPOT intensity is 0.

With B2 as the binder, how does the SPOT intensity read?
The SPOT intensity was 12.

B3 was tested. Which SPOT intensity did it give?
The SPOT intensity was 2.

Molecular target: T7, Bzz1-2, P38822
T7 sequence (P38822 568-633, looked up): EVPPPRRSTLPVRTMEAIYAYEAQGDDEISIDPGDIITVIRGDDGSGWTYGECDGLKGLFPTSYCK
Assay: SPOT array
Conditions: median of control spots 4538

Which SPOT intensity does the source give for B1 here?
The SPOT intensity was 0.

With B2 as the binder, how does the SPOT intensity read?
The SPOT intensity was 0.

B3 was tested. Which SPOT intensity did it give?
The SPOT intensity was 5.

Molecular target: T8, Cdc25, P04821
T8 sequence (P04821 50-136, looked up): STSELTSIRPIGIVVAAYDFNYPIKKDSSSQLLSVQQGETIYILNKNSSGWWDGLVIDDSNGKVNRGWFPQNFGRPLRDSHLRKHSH
Assay: SPOT array
Conditions: median of control spots 969

With B1 as the binder, how does the SPOT intensity read?
The SPOT intensity was 0.

B2 was tested. Which SPOT intensity did it give?
The SPOT intensity was 0.

How did the SPOT intensity turn out when B3 was run?
Its SPOT intensity is 0.

Molecular target: T9, Cyk3, Q07533
T9 sequence (Q07533 1-83, looked up): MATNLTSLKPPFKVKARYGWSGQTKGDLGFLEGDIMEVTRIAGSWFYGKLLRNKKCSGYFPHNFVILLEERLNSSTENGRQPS
Assay: SPOT array
Conditions: median of control spots 1451

Which SPOT intensity does the source give for B1 here?
Its SPOT intensity is 0.

For B2, which SPOT intensity is on record?
Its SPOT intensity is 0.

How did the SPOT intensity turn out when B3 was run?
The SPOT intensity was 0.

Molecular target: T10, Fus1, P11710
T10 sequence (P11710 432-512, looked up): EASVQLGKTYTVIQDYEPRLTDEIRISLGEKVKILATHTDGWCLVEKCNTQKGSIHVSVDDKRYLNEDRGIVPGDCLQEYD
Assay: SPOT array
Conditions: median of control spots 1200

For B1, which SPOT intensity is on record?
Its SPOT intensity is 0.

How did the SPOT intensity turn out when B2 was run?
The SPOT intensity was 0.

For B3, which SPOT intensity is on record?
Its SPOT intensity is 2.

Molecular target: GST
Assay: SPOT array
Conditions: median of control spots 978

How did the SPOT intensity turn out when B1 was run?
Its SPOT intensity is 0.

Which SPOT intensity does the source give for B2 here?
The SPOT intensity was 3.

With B3 as the binder, how does the SPOT intensity read?
Its SPOT intensity is 0.

Molecular target: T11, Hof1, Q05080
T11 sequence (Q05080 590-669, looked up): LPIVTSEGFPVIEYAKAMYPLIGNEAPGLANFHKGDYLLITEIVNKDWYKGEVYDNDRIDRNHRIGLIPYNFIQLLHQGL
Assay: SPOT array
Conditions: median of control spots 4086

Which SPOT intensity does the source give for B1 here?
Its SPOT intensity is 0.

B2 was tested. Which SPOT intensity did it give?
The SPOT intensity was 0.

How did the SPOT intensity turn out when B3 was run?
The SPOT intensity was 1.

Molecular target: T12, Hse1, P38753
T12 sequence (P38753 208-285, looked up): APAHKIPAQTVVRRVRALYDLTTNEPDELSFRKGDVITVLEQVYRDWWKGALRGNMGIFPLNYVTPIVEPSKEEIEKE
Assay: SPOT array
Conditions: median of control spots 1727

Which SPOT intensity does the source give for B1 here?
The SPOT intensity was 3.

With B2 as the binder, how does the SPOT intensity read?
The SPOT intensity was 0.

For B3, which SPOT intensity is on record?
The SPOT intensity was 0.

Molecular target: T13, Lsb1, P53281
T13 sequence (P53281 45-122, looked up): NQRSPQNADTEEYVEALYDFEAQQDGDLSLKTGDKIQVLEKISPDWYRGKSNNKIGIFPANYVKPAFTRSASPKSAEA
Assay: SPOT array
Conditions: median of control spots 388

How did the SPOT intensity turn out when B1 was run?
The SPOT intensity was 0.

How did the SPOT intensity turn out when B2 was run?
Its SPOT intensity is 0.

For B3, which SPOT intensity is on record?
The SPOT intensity was 0.

Molecular target: T14, Lsb3, P43603
T14 sequence (P43603 385-451, looked up): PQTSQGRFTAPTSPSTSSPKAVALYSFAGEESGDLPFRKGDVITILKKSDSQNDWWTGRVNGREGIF
Assay: SPOT array
Conditions: median of control spots 406

Which SPOT intensity does the source give for B1 here?
Its SPOT intensity is 0.

B2 was tested. Which SPOT intensity did it give?
Its SPOT intensity is 46.

With B3 as the binder, how does the SPOT intensity read?
Its SPOT intensity is 0.

Molecular target: T15, Lsb4, P32793
T15 sequence (P32793 402-468, looked up): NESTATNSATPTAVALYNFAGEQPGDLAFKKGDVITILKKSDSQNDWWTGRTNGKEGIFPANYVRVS
Assay: SPOT array
Conditions: median of control spots 397

For B1, which SPOT intensity is on record?
Its SPOT intensity is 0.

B2 was tested. Which SPOT intensity did it give?
Its SPOT intensity is 108.

Which SPOT intensity does the source give for B3 here?
Its SPOT intensity is 0.

Molecular target: Myo3, P36006
Assay: SPOT array
Conditions: median of control spots 468

B1 was tested. Which SPOT intensity did it give?
Its SPOT intensity is 497.

For B2, which SPOT intensity is on record?
The SPOT intensity was 367.

For B3, which SPOT intensity is on record?
The SPOT intensity was 557.

Molecular target: T16, Myo5, Q04439
T16 sequence (Q04439 1072-1160, looked up): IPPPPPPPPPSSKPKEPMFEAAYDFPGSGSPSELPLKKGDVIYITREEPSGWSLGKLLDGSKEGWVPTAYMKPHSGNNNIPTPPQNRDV
Assay: SPOT array
Conditions: median of control spots 471

For B1, which SPOT intensity is on record?
The SPOT intensity was 239.

With B2 as the binder, how does the SPOT intensity read?
Its SPOT intensity is 141.

B3 was tested. Which SPOT intensity did it give?
The SPOT intensity was 489.

Molecular target: T17, Nbp2, Q12163
T17 sequence (Q12163 103-180, looked up): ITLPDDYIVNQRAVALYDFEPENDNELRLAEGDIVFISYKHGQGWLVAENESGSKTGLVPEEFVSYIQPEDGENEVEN
Assay: SPOT array
Conditions: median of control spots 357

For B1, which SPOT intensity is on record?
Its SPOT intensity is 0.

B2 was tested. Which SPOT intensity did it give?
Its SPOT intensity is 0.

B3 was tested. Which SPOT intensity did it give?
Its SPOT intensity is 0.

Molecular target: T18, Pex13, P80667
T18 sequence (P80667 295-386, looked up): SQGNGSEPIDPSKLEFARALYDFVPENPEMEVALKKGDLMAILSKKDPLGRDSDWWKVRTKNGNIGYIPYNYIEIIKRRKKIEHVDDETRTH
Assay: SPOT array
Conditions: median of control spots 1341

How did the SPOT intensity turn out when B1 was run?
Its SPOT intensity is 0.

B2 was tested. Which SPOT intensity did it give?
Its SPOT intensity is 0.

Which SPOT intensity does the source give for B3 here?
Its SPOT intensity is 3.

Molecular target: T19, Pin3, Q06449
T19 sequence (Q06449 53-122, looked up): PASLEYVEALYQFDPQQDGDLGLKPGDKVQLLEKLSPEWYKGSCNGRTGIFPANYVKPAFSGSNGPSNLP
Assay: SPOT array
Conditions: median of control spots 2171

For B1, which SPOT intensity is on record?
Its SPOT intensity is 0.

For B2, which SPOT intensity is on record?
Its SPOT intensity is 0.

With B3 as the binder, how does the SPOT intensity read?
Its SPOT intensity is 0.

Molecular target: Rvs167, P39743
Sequence (P39743 419-482): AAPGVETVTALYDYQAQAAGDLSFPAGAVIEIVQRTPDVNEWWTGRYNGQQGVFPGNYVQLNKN
Assay: SPOT array
Conditions: median of control spots 2707

How did the SPOT intensity turn out when B1 was run?
The SPOT intensity was 0.

B2 was tested. Which SPOT intensity did it give?
The SPOT intensity was 0.

With B3 as the binder, how does the SPOT intensity read?
Its SPOT intensity is 0.

Molecular target: Sho1, P40073
Sequence (P40073 287-367): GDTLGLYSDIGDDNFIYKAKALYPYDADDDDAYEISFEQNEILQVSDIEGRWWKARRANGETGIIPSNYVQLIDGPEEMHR
Assay: SPOT array
Conditions: median of control spots 1148

Which SPOT intensity does the source give for B1 here?
The SPOT intensity was 0.

With B2 as the binder, how does the SPOT intensity read?
Its SPOT intensity is 0.

With B3 as the binder, how does the SPOT intensity read?
The SPOT intensity was 0.

Molecular target: T20, Sla1-2, P32790
T20 sequence (P32790 60-140, looked up): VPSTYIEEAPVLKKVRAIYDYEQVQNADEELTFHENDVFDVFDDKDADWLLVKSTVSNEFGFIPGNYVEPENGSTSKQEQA
Assay: SPOT array
Conditions: median of control spots 712

Which SPOT intensity does the source give for B1 here?
Its SPOT intensity is 0.

For B2, which SPOT intensity is on record?
The SPOT intensity was 0.

With B3 as the binder, how does the SPOT intensity read?
Its SPOT intensity is 0.

Molecular target: T21, Sla1-3, P32790
T21 sequence (P32790 344-424, looked up): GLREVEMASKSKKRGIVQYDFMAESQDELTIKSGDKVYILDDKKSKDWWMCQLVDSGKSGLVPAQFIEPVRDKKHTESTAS
Assay: SPOT array
Conditions: median of control spots 5475

How did the SPOT intensity turn out when B1 was run?
Its SPOT intensity is 0.

For B2, which SPOT intensity is on record?
Its SPOT intensity is 0.

With B3 as the binder, how does the SPOT intensity read?
The SPOT intensity was 0.
